T1: Human ALPP (leucine zipper) (human)
T1 construct: Soluble human ALPP fused to a disulphide stabilised leucine zipper and a His tag; The whole entry is the construct; also called hALPP; PLAP
T1 chain: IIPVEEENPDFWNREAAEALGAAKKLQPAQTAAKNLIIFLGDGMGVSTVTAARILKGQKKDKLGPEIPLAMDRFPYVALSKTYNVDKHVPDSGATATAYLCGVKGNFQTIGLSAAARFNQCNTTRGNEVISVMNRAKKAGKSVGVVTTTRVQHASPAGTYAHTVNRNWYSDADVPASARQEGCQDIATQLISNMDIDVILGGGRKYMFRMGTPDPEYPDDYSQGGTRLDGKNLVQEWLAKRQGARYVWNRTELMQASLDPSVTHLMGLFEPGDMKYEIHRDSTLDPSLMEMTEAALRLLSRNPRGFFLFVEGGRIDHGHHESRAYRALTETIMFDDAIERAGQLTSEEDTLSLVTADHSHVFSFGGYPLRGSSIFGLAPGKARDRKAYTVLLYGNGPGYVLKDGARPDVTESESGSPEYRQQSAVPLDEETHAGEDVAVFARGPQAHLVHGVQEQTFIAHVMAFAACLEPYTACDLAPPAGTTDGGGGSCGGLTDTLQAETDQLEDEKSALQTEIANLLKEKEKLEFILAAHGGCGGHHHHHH

B1: D10 A06-hFc (S239C + S442C), [G4S]1 linkers (Fc fusion)
chain 1: QVQLVESGGGLVQPGGSLRLSCAASGSIFSVNTMGWYRQAPGKQRDLVAVATSGGTIHYADSVKGRFTISRDNAKNTVYLQMNSLKPEDTAVYYCNLVVPYGMIAGDHDYWGQGTKVTVSSGGGGSEPKSSDKTHTCPPCPAPELLGGPCVFLFPPKPKDTLMISRTPEVTCVVVDVSHEDPEVKFNWYVDGVEVHNAKTKPREEQYNSTYRVVSVLTVLHQDWLNGKEYKCKVSNKALPAPIEKTISKAKGQPREPQVYTLPPSRDELTKNQVSLYCLVKGFYPSDIAVEWESNGQPENNYKTTPPVLDSDGSFFLYSKLTVDKSRWQQGNVFSCSVMHEALHNHYTQKSLCLSPGK
chain 2: QVHLVESGGGLVQAGGSLRLSCAASGRTFLSMGWFRQAPGKEREFVAAISWTGGSTGYADSVKGRFTISRESDKETMYLQMNSLKPEDTAVYYCAARGDVYYGGDDATRYKYWGQGTQVTVSSGGGGSEPKSSDKTHTCPPCPAPELLGGPCVFLFPPKPKDTLMISRTPEVTCVVVDVSHEDPEVKFNWYVDGVEVHNAKTKPREEQYNSTYRVVSVLTVLHQDWLNGKEYKCKVSNKALPAPIEKTISKAKGQPREPQVYTLPPSRDELTKNQVSLTCLVKGFYPSDIAVEWESNGQPENNYKTTPPVLDSDGSFFLTSKLTVDKSRWQQGNVFSCSVMHEALHNHYTQKSLCLSPGK
notes: Biparatopic heterodimer; also called #666
B2: D10 E06-hFc (S239C + S442C), [G4S]1 linkers (Fc fusion)
chain 1: QVQLVESGGGLVQPGGSLRLSCAASGSIFSVNTMGWYRQAPGKQRDLVAVATSGGTIHYADSVKGRFTISRDNAKNTVYLQMNSLKPEDTAVYYCNLVVPYGMIAGDHDYWGQGTKVTVSSGGGGSEPKSSDKTHTCPPCPAPELLGGPCVFLFPPKPKDTLMISRTPEVTCVVVDVSHEDPEVKFNWYVDGVEVHNAKTKPREEQYNSTYRVVSVLTVLHQDWLNGKEYKCKVSNKALPAPIEKTISKAKGQPREPQVYTLPPSRDELTKNQVSLYCLVKGFYPSDIAVEWESNGQPENNYKTTPPVLDSDGSFFLYSKLTVDKSRWQQGNVFSCSVMHEALHNHYTQKSLCLSPGK
chain 2: QVHLVESGGGLVQAGGSLRLSCAASRRSFSEYAMGWFRQAPGKEREFVAAIGWSGVIEYADSVKGRFTISRDNAKDTVYLQMNSLKPEDTAVYYCAAGLGIRVVSQTPAYWGQGTQVTVSSGGGGSEPKSSDKTHTCPPCPAPELLGGPCVFLFPPKPKDTLMISRTPEVTCVVVDVSHEDPEVKFNWYVDGVEVHNAKTKPREEQYNSTYRVVSVLTVLHQDWLNGKEYKCKVSNKALPAPIEKTISKAKGQPREPQVYTLPPSRDELTKNQVSLTCLVKGFYPSDIAVEWESNGQPENNYKTTPPVLDSDGSFFLTSKLTVDKSRWQQGNVFSCSVMHEALHNHYTQKSLCLSPGK
notes: Biparatopic heterodimer
B3: A06 E06-hFc (S239C + S442C), [G4S]1 linkers (Fc fusion)
chain 1: QVHLVESGGGLVQAGGSLRLSCAASGRTFLSMGWFRQAPGKEREFVAAISWTGGSTGYADSVKGRFTISRESDKETMYLQMNSLKPEDTAVYYCAARGDVYYGGDDATRYKYWGQGTQVTVSSGGGGSEPKSSDKTHTCPPCPAPELLGGPCVFLFPPKPKDTLMISRTPEVTCVVVDVSHEDPEVKFNWYVDGVEVHNAKTKPREEQYNSTYRVVSVLTVLHQDWLNGKEYKCKVSNKALPAPIEKTISKAKGQPREPQVYTLPPSRDELTKNQVSLYCLVKGFYPSDIAVEWESNGQPENNYKTTPPVLDSDGSFFLYSKLTVDKSRWQQGNVFSCSVMHEALHNHYTQKSLCLSPGK
chain 2: QVHLVESGGGLVQAGGSLRLSCAASRRSFSEYAMGWFRQAPGKEREFVAAIGWSGVIEYADSVKGRFTISRDNAKDTVYLQMNSLKPEDTAVYYCAAGLGIRVVSQTPAYWGQGTQVTVSSGGGGSEPKSSDKTHTCPPCPAPELLGGPCVFLFPPKPKDTLMISRTPEVTCVVVDVSHEDPEVKFNWYVDGVEVHNAKTKPREEQYNSTYRVVSVLTVLHQDWLNGKEYKCKVSNKALPAPIEKTISKAKGQPREPQVYTLPPSRDELTKNQVSLTCLVKGFYPSDIAVEWESNGQPENNYKTTPPVLDSDGSFFLTSKLTVDKSRWQQGNVFSCSVMHEALHNHYTQKSLCLSPGK
notes: Biparatopic heterodimer; also called #671
B4: D10 E10-hFc (S239C + S442C), [G4S]1 linkers (Fc fusion)
chain 1: QVQLVESGGGLVQPGGSLRLSCAASGSIFSVNTMGWYRQAPGKQRDLVAVATSGGTIHYADSVKGRFTISRDNAKNTVYLQMNSLKPEDTAVYYCNLVVPYGMIAGDHDYWGQGTKVTVSSGGGGSEPKSSDKTHTCPPCPAPELLGGPCVFLFPPKPKDTLMISRTPEVTCVVVDVSHEDPEVKFNWYVDGVEVHNAKTKPREEQYNSTYRVVSVLTVLHQDWLNGKEYKCKVSNKALPAPIEKTISKAKGQPREPQVYTLPPSRDELTKNQVSLYCLVKGFYPSDIAVEWESNGQPENNYKTTPPVLDSDGSFFLYSKLTVDKSRWQQGNVFSCSVMHEALHNHYTQKSLCLSPGK
chain 2: QVQLVESGGGLVQAGGSLRLSCAVSGRALSDYNIGWFRQAPGKEREFVARKTWDGSSTRYDDSVKGRFTVSIEDAKNTAYLQMSSLKTEDTAVYYCAAGRYSRARGWEYDYWGQGTQVTVSSGGGGSEPKSSDKTHTCPPCPAPELLGGPCVFLFPPKPKDTLMISRTPEVTCVVVDVSHEDPEVKFNWYVDGVEVHNAKTKPREEQYNSTYRVVSVLTVLHQDWLNGKEYKCKVSNKALPAPIEKTISKAKGQPREPQVYTLPPSRDELTKNQVSLTCLVKGFYPSDIAVEWESNGQPENNYKTTPPVLDSDGSFFLTSKLTVDKSRWQQGNVFSCSVMHEALHNHYTQKSLCLSPGK
notes: Biparatopic heterodimer; also called #668
B5: A06 E10-hFc (S239C + S442C), [G4S]1 linkers (Fc fusion)
chain 1: QVHLVESGGGLVQAGGSLRLSCAASGRTFLSMGWFRQAPGKEREFVAAISWTGGSTGYADSVKGRFTISRESDKETMYLQMNSLKPEDTAVYYCAARGDVYYGGDDATRYKYWGQGTQVTVSSGGGGSEPKSSDKTHTCPPCPAPELLGGPCVFLFPPKPKDTLMISRTPEVTCVVVDVSHEDPEVKFNWYVDGVEVHNAKTKPREEQYNSTYRVVSVLTVLHQDWLNGKEYKCKVSNKALPAPIEKTISKAKGQPREPQVYTLPPSRDELTKNQVSLYCLVKGFYPSDIAVEWESNGQPENNYKTTPPVLDSDGSFFLYSKLTVDKSRWQQGNVFSCSVMHEALHNHYTQKSLCLSPGK
chain 2: QVQLVESGGGLVQAGGSLRLSCAVSGRALSDYNIGWFRQAPGKEREFVARKTWDGSSTRYDDSVKGRFTVSIEDAKNTAYLQMSSLKTEDTAVYYCAAGRYSRARGWEYDYWGQGTQVTVSSGGGGSEPKSSDKTHTCPPCPAPELLGGPCVFLFPPKPKDTLMISRTPEVTCVVVDVSHEDPEVKFNWYVDGVEVHNAKTKPREEQYNSTYRVVSVLTVLHQDWLNGKEYKCKVSNKALPAPIEKTISKAKGQPREPQVYTLPPSRDELTKNQVSLTCLVKGFYPSDIAVEWESNGQPENNYKTTPPVLDSDGSFFLTSKLTVDKSRWQQGNVFSCSVMHEALHNHYTQKSLCLSPGK
notes: Biparatopic heterodimer
B6: D10 F05-hFc (S239C + S442C), [G4S]1 linkers (Fc fusion)
chain 1: QVQLVESGGGLVQPGGSLRLSCAASGSIFSVNTMGWYRQAPGKQRDLVAVATSGGTIHYADSVKGRFTISRDNAKNTVYLQMNSLKPEDTAVYYCNLVVPYGMIAGDHDYWGQGTKVTVSSGGGGSEPKSSDKTHTCPPCPAPELLGGPCVFLFPPKPKDTLMISRTPEVTCVVVDVSHEDPEVKFNWYVDGVEVHNAKTKPREEQYNSTYRVVSVLTVLHQDWLNGKEYKCKVSNKALPAPIEKTISKAKGQPREPQVYTLPPSRDELTKNQVSLYCLVKGFYPSDIAVEWESNGQPENNYKTTPPVLDSDGSFFLYSKLTVDKSRWQQGNVFSCSVMHEALHNHYTQKSLCLSPGK
chain 2: QVQLVESGGGLVQAGGSLRLSCAASGRAFGDYNIGWFRQAPGKEREFVARRTWDGSSTRYDDSVKGRFTVSIDNAKNTAYLQMNSLKTEDTAVYYCAAGRYSRVRGWEYDYWGQGTQVTVSSGGGGSEPKSSDKTHTCPPCPAPELLGGPCVFLFPPKPKDTLMISRTPEVTCVVVDVSHEDPEVKFNWYVDGVEVHNAKTKPREEQYNSTYRVVSVLTVLHQDWLNGKEYKCKVSNKALPAPIEKTISKAKGQPREPQVYTLPPSRDELTKNQVSLTCLVKGFYPSDIAVEWESNGQPENNYKTTPPVLDSDGSFFLTSKLTVDKSRWQQGNVFSCSVMHEALHNHYTQKSLCLSPGK
notes: Biparatopic heterodimer; also called #669
B7: A06 F05-hFc (S239C + S442C), [G4S]1 linkers (Fc fusion)
chain 1: QVHLVESGGGLVQAGGSLRLSCAASGRTFLSMGWFRQAPGKEREFVAAISWTGGSTGYADSVKGRFTISRESDKETMYLQMNSLKPEDTAVYYCAARGDVYYGGDDATRYKYWGQGTQVTVSSGGGGSEPKSSDKTHTCPPCPAPELLGGPCVFLFPPKPKDTLMISRTPEVTCVVVDVSHEDPEVKFNWYVDGVEVHNAKTKPREEQYNSTYRVVSVLTVLHQDWLNGKEYKCKVSNKALPAPIEKTISKAKGQPREPQVYTLPPSRDELTKNQVSLYCLVKGFYPSDIAVEWESNGQPENNYKTTPPVLDSDGSFFLYSKLTVDKSRWQQGNVFSCSVMHEALHNHYTQKSLCLSPGK
chain 2: QVQLVESGGGLVQAGGSLRLSCAASGRAFGDYNIGWFRQAPGKEREFVARRTWDGSSTRYDDSVKGRFTVSIDNAKNTAYLQMNSLKTEDTAVYYCAAGRYSRVRGWEYDYWGQGTQVTVSSGGGGSEPKSSDKTHTCPPCPAPELLGGPCVFLFPPKPKDTLMISRTPEVTCVVVDVSHEDPEVKFNWYVDGVEVHNAKTKPREEQYNSTYRVVSVLTVLHQDWLNGKEYKCKVSNKALPAPIEKTISKAKGQPREPQVYTLPPSRDELTKNQVSLTCLVKGFYPSDIAVEWESNGQPENNYKTTPPVLDSDGSFFLTSKLTVDKSRWQQGNVFSCSVMHEALHNHYTQKSLCLSPGK

Molecular target: T1, Human ALPP (leucine zipper)
Test: BLI, KD app (antigen immobilised on AR2G sensor)
Experimental: Binding kinetics were determined using the Biolayer Interferometry (BLI) Octet K2 or R4 system (Sartorius). […] For KD apparent measurements, the ALPP proteins were immobilised in sodium acetate pH5 buffer to AR2G sensors using amine coupling. To measure 1:1 interactions, AHC biosensors were used to immobilise Fc-fused proteins. All assays were conducted in HBS-EP with a plate temperature of 25° C. Ka (M⁻¹s⁻¹), Kd (s⁻¹) and KD (nM) values were determined using Octet Data Analysis High Throughput software (Sartorius) for Biolayer Interferometry.

Going from B1 to B2, the Kd rises from less than 0.01 nM to 0.048 nM. The first binds more tightly here.

First: B3
Second: B4
The Kd of the first is higher: 0.0202 nM for the first, less than 0.01 nM for the second. The second binds more tightly here.

For B6, the Kd was less than 0.01 nM.

In order of rising kon:
1. B2  271000 M⁻¹ s⁻¹
2. B1  332000 M⁻¹ s⁻¹
3. B4  374000 M⁻¹ s⁻¹
4. B7  422000 M⁻¹ s⁻¹
5. B6  430000 M⁻¹ s⁻¹
6. B5  516000 M⁻¹ s⁻¹
7. B3  602000 M⁻¹ s⁻¹

B6 showed a koff of less than 1e-07 s⁻¹.
